From the supplement of paper PMC9112550, “Optimization of the antimicrobial peptide Bac7 by deep mutational scanning” (BMC Biology, 2022)

System: Escherichia coli TOP10
Assay: shrunken log2 fold change of peptide-encoding DNA abundance (4.5 h post-induction vs induction); higher = less antimicrobial activity (less host growth inhibition)
Conditions: time post-induction: 4.5 h; library: site-saturation at positions 5, 18, 19, 20
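Note: peptides expressed intracellularly from a pBAD plasmid library in pooled LB shake-flask culture, induced with 0.3% L-arabinose, DNA abundance read by NGS, three biological replicates, DESeq2 with apeglm shrinkage.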

Sequence	shrunken log2 fold change
RRIRTRPPRLPRPRPRPRKNPRP	0.136
RRIRGRPPRLPRPRPRPRETPRP	1.86
RRIRSRPPRLPRPRPRPAERPRP	0.0522
RRIRYRPPRLPRPRPRPRERPRP	0.126
RRIRTRPPRLPRPRPRPTFCPRP	0.147
RRIRHRPPRLPRPRPRPCIQPRP	-0.00018
RRIRRRPPRLPRPRPRPYCGPRP	-0.379
RRIRKRPPRLPRPRPRPMATPRP	0.329
RRIRLRPPRLPRPRPRPRGGPRP	0.515
RRIRHRPPRLPRPRPRPQAEPRP	-0.0254
RRIRARPPRLPRPRPRPAREPRP	0.835
RRIRDRPPRLPRPRPRPNLVPRP	-0.0615
RRIRNRPPRLPRPRPRPDMAPRP	-0.0639
RRIRIRPPRLPRPRPRPTDCPRP	-0.196
RRIRIRPPRLPRPRPRPRDQPRP	-0.0489
RRIRWRPPRLPRPRPRPCNNPRP	0.00194
RRIRDRPPRLPRPRPRPFFKPRP	-0.127
RRIRERPPRLPRPRPRPNCCPRP	-0.00112
RRIRIRPPRLPRPRPRPELSPRP	-0.476
RRIRPRPPRLPRPRPRPMPEPRP	-0.0242
RRIRFRPPRLPRPRPRPLHKPRP	-0.179
RRIRMRPPRLPRPRPRPLPTPRP	1.36
RRIRVRPPRLPRPRPRPIMSPRP	-0.0851
RRIRKRPPRLPRPRPRPAFMPRP	0.341
RRIRIRPPRLPRPRPRPPDDPRP	0.494

Sequence	shrunken log2 fold change
RRIRRRPPRLPRPRPRPFWVPRP	0.236
RRIRMRPPRLPRPRPRPGQIPRP	-0.00968
RRIRNRPPRLPRPRPRPQCRPRP	-0.132
RRIRLRPPRLPRPRPRPKKNPRP	0.144
RRIRHRPPRLPRPRPRPVCGPRP	0.137
RRIRSRPPRLPRPRPRPFCEPRP	-0.0573
RRIRLRPPRLPRPRPRPVYFPRP	-0.455
RRIRLRPPRLPRPRPRPNVVPRP	-0.19
RRIRTRPPRLPRPRPRPMCIPRP	-0.649
RRIRARPPRLPRPRPRPEHHPRP	0.132
RRIRTRPPRLPRPRPRPCIQPRP	0.0196
RRIRVRPPRLPRPRPRPESTPRP	0.108
RRIRFRPPRLPRPRPRPSIPPRP	-0.602
RRIRARPPRLPRPRPRPLKQPRP	0.469
RRIRKRPPRLPRPRPRPFWDPRP	-0.0842
RRIRTRPPRLPRPRPRPIDQPRP	-0.00192
RRIRHRPPRLPRPRPRPQDYPRP	-0.101
RRIRLRPPRLPRPRPRPAFDPRP	-0.0259
RRIRRRPPRLPRPRPRPIQCPRP	0.00305
RRIRERPPRLPRPRPRPHSIPRP	-0.0535
RRIRYRPPRLPRPRPRPRQMPRP	-0.0779
RRIRNRPPRLPRPRPRPFWWPRP	-0.0225
RRIRLRPPRLPRPRPRPDPNPRP	0.168
RRIRVRPPRLPRPRPRPSWLPRP	0.23
RRIRERPPRLPRPRPRPCWNPRP	-0.107

Sequence	shrunken log2 fold change
RRIRIRPPRLPRPRPRPHTTPRP	0.0536
RRIRIRPPRLPRPRPRPWWAPRP	-0.255
RRIRGRPPRLPRPRPRPWIAPRP	-0.0596
RRIRWRPPRLPRPRPRPTVMPRP	-0.374
RRIRRRPPRLPRPRPRPMSRPRP	-0.0357
RRIRGRPPRLPRPRPRPYLPPRP	-0.204
RRIRPRPPRLPRPRPRPPLEPRP	0.179
RRIRVRPPRLPRPRPRPISKPRP	-0.184
RRIRLRPPRLPRPRPRPTQMPRP	0.333
RRIRRRPPRLPRPRPRPCRAPRP	0.182
RRIRTRPPRLPRPRPRPSDNPRP	-0.697
RRIRCRPPRLPRPRPRPESMPRP	0.114
RRIRSRPPRLPRPRPRPYKYPRP	-0.637
RRIRVRPPRLPRPRPRPTICPRP	-0.604
RRIRCRPPRLPRPRPRPIVIPRP	-1.09
RRIRNRPPRLPRPRPRPWHVPRP	0.0188
RRIRSRPPRLPRPRPRPMDWPRP	-0.0477
RRIRTRPPRLPRPRPRPIPMPRP	-0.38
RRIRYRPPRLPRPRPRPTLPPRP	-0.135
RRIRVRPPRLPRPRPRPLGVPRP	-0.116
RRIRRRPPRLPRPRPRPWDYPRP	0.0184
RRIRERPPRLPRPRPRPPMVPRP	-0.45
RRIRPRPPRLPRPRPRPKQPPRP	0.0475
RRIRPRPPRLPRPRPRPSKCPRP	-0.0749
RRIRTRPPRLPRPRPRPDREPRP	-0.0115

Sequence	shrunken log2 fold change
RRIRNRPPRLPRPRPRPVWNPRP	-0.0723
RRIRGRPPRLPRPRPRPNRWPRP	0.617
RRIRSRPPRLPRPRPRPIPNPRP	-0.432
RRIRRRPPRLPRPRPRPVPCPRP	0.0337
RRIRPRPPRLPRPRPRPFVYPRP	-0.706
RRIRFRPPRLPRPRPRPWEIPRP	-0.0062
RRIRSRPPRLPRPRPRPMDEPRP	0.0216
RRIRDRPPRLPRPRPRPRFAPRP	0.327
RRIRNRPPRLPRPRPRPKVYPRP	-0.406
RRIRRRPPRLPRPRPRPFYCPRP	-0.162
RRIRGRPPRLPRPRPRPGEHPRP	0.587
RRIRMRPPRLPRPRPRPPVYPRP	0.167
RRIRKRPPRLPRPRPRPTLQPRP	0.594
RRIRSRPPRLPRPRPRPNMAPRP	-0.0738
RRIRKRPPRLPRPRPRPHMLPRP	-0.105
RRIRPRPPRLPRPRPRPQWFPRP	-0.0872
RRIRLRPPRLPRPRPRPWWGPRP	-0.063
RRIRTRPPRLPRPRPRPHDIPRP	2.43
RRIRERPPRLPRPRPRPTTSPRP	-0.147
RRIRCRPPRLPRPRPRPAAQPRP	0.394
RRIRHRPPRLPRPRPRPCNLPRP	-0.135
RRIRVRPPRLPRPRPRPVVTPRP	0.0368
RRIRSRPPRLPRPRPRPRSIPRP	-0.0602
RRIRKRPPRLPRPRPRPVHNPRP	-0.0446
RRIRYRPPRLPRPRPRPMNWPRP	-0.463

Sequence	shrunken log2 fold change
RRIRRRPPRLPRPRPRPSSHPRP	-0.0976
RRIRTRPPRLPRPRPRPYWTPRP	0.0389
RRIRPRPPRLPRPRPRPCCVPRP	0.182
RRIRQRPPRLPRPRPRPIYAPRP	-0.222
RRIRHRPPRLPRPRPRPCRDPRP	0.0154
RRIRPRPPRLPRPRPRPETAPRP	0.396
RRIRERPPRLPRPRPRPSMMPRP	-0.257
RRIRRRPPRLPRPRPRPDLFPRP	0.41
RRIRIRPPRLPRPRPRPDMCPRP	0.00741
RRIRWRPPRLPRPRPRPDYTPRP	-0.0601
RRIRGRPPRLPRPRPRPFNFPRP	0.0755
RRIRCRPPRLPRPRPRPQGEPRP	0.161
RRIRPRPPRLPRPRPRPAGSPRP	0.206
RRIRIRPPRLPRPRPRPNKNPRP	-0.701
RRIRARPPRLPRPRPRPNTLPRP	-0.202
RRIRKRPPRLPRPRPRPMPDPRP	0.525
RRIRDRPPRLPRPRPRPRESPRP	0.583
RRIRIRPPRLPRPRPRPDNRPRP	-0.00277
RRIRGRPPRLPRPRPRPIKMPRP	0.441
RRIRARPPRLPRPRPRPIQAPRP	-0.0205
RRIRGRPPRLPRPRPRPWAPPRP	0.452
RRIRSRPPRLPRPRPRPIGEPRP	-0.017
RRIRHRPPRLPRPRPRPFWCPRP	-0.3
RRIRPRPPRLPRPRPRPEFEPRP	-0.0475
RRIRYRPPRLPRPRPRPHMVPRP	-0.126

Sequence	shrunken log2 fold change
RRIRPRPPRLPRPRPRPATNPRP	-0.105
RRIRMRPPRLPRPRPRPCRVPRP	0.00805
RRIRTRPPRLPRPRPRPIDKPRP	-0.175
RRIRNRPPRLPRPRPRPNTVPRP	-0.409
RRIRDRPPRLPRPRPRPADKPRP	-0.0463
RRIRLRPPRLPRPRPRPIYRPRP	-0.0597
RRIRYRPPRLPRPRPRPSLPPRP	-0.546
RRIRYRPPRLPRPRPRPWWRPRP	-0.0462
RRIRIRPPRLPRPRPRPMCCPRP	-0.212
RRIRARPPRLPRPRPRPDQDPRP	0.605
RRIRYRPPRLPRPRPRPDFCPRP	-0.228
RRIRSRPPRLPRPRPRPKEHPRP	0.0336
RRIRMRPPRLPRPRPRPAMGPRP	0.867
RRIRTRPPRLPRPRPRPPDEPRP	0.0184
RRIRYRPPRLPRPRPRPYPLPRP	-0.146
RRIRARPPRLPRPRPRPKTIPRP	0.038
RRIRGRPPRLPRPRPRPSTIPRP	0.235
RRIRMRPPRLPRPRPRPPCYPRP	-0.0907
RRIRIRPPRLPRPRPRPIRWPRP	0.0124
RRIRFRPPRLPRPRPRPFGVPRP	-0.166
RRIRVRPPRLPRPRPRPTPMPRP	0.259
RRIRIRPPRLPRPRPRPALQPRP	-0.011
RRIRHRPPRLPRPRPRPQQAPRP	-0.00588
RRIRARPPRLPRPRPRPWGHPRP	0.0337
RRIRMRPPRLPRPRPRPDMEPRP	0.00931
